Values quoted from earlier work as cited in PMC6540150.

Target: SOUL BH3 (Homo sapiens) (UniProt Q9Y5Z4)

- Kd: 40 µM
Substance: Bcl-xL (from UniProt Q07817)
